This note sets out measurements from PMC4175327.

The target in this data set is human beta2-microglobulin (hβ2m), monomer (human) (UniProt P61769). Briefly: SPR. As to conditions: 2'-fluoro C and U; 50 mM MES, 120 mM NaCl, pH 6.2; fluorescence and NMR at 25 °C (NMR plus 0.02% azide, 0.1 mM EDTA, 10% D2O); SPR temperature not stated.
Chain of human beta2-microglobulin (hβ2m), monomer (human) (P61769 21-119): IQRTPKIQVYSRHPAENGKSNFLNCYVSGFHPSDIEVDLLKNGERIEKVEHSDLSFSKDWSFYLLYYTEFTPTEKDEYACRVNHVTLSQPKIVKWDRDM

Regarding “GGGAAUGGAUCCACAUCUACGAAUUCUGAGCUACUCCCUUUUGGGCCCGGCUAUGAUUCACUGCAGACUUGACGAAGCUU [2'F B6 (full-length aptamer, 110 nt)]”, the Kd turned out to be 500 nM.
